Measurements taken from patent US20120035244A1 (REGENTS OF THE UNIVERSITY OF MICHIGAN, published 2012).

B1: ERG, TMPRSS2:ERG gene fusion product (TMPRSS2 exon 1 fused to ERG1 exon 2) (other, human, UniProt P11308 33-479, looked up)
chain: MTASSSSDYGQTSKMSPRVPQQDWLSQPPARVTIKMECNPSQVNGSRNSPDECSVAKGGKMVGSPDTVGMNYGSYMEEKHMPPPNMTTNERRVIVPADPTLWSTDHVRQWLEWAVKEYGLPDVNILLFQNIDGKELCKMTKDDFQRLTPSYNADILLSHLHYLRETPLPHLTSDDVDKALQNSPRLMHARNTGGAAFIFPNTSVYPEATQRITTRPDLPYEPPRRSAWTGHGHPTPQSKAAQPSPSTVPKTEDQRPQLDPYQILGPTSSRLANPGSGQIQLWQFLLELLSDSSNSSCITWEGTNGEFKMTDPDEVARRWGERKSKPNMNYDKLSRALRYYYDKNIMTKVHGKRYAYKFDFHGIAQALQPHPPESSLYKYPSDLPYMGSYHAHPQKMNFVAPHPPALPVTSSSFFAAPNPYWNSPTGGIYPNTRLPTSHMPSHLGTYY
notes: Untagged fusion product: endogenous in VCaP cells and in ERG fusion-positive human prostate cancer tissues; no tag stated; also called TMPRSS-ERG gene fusion product; endogenous gene fusion product

Key:
[1] = target: B1; test: ERG immunoprecipitation from VCaP cells, Western blot (FIG. 1b)
ATR = ATR (human, UniProt Q13535 1-2644); test: ERG immunoprecipitation from VCaP cells, Western blot (FIG. 8b)
Sequence of ATR (Q13535 whole entry): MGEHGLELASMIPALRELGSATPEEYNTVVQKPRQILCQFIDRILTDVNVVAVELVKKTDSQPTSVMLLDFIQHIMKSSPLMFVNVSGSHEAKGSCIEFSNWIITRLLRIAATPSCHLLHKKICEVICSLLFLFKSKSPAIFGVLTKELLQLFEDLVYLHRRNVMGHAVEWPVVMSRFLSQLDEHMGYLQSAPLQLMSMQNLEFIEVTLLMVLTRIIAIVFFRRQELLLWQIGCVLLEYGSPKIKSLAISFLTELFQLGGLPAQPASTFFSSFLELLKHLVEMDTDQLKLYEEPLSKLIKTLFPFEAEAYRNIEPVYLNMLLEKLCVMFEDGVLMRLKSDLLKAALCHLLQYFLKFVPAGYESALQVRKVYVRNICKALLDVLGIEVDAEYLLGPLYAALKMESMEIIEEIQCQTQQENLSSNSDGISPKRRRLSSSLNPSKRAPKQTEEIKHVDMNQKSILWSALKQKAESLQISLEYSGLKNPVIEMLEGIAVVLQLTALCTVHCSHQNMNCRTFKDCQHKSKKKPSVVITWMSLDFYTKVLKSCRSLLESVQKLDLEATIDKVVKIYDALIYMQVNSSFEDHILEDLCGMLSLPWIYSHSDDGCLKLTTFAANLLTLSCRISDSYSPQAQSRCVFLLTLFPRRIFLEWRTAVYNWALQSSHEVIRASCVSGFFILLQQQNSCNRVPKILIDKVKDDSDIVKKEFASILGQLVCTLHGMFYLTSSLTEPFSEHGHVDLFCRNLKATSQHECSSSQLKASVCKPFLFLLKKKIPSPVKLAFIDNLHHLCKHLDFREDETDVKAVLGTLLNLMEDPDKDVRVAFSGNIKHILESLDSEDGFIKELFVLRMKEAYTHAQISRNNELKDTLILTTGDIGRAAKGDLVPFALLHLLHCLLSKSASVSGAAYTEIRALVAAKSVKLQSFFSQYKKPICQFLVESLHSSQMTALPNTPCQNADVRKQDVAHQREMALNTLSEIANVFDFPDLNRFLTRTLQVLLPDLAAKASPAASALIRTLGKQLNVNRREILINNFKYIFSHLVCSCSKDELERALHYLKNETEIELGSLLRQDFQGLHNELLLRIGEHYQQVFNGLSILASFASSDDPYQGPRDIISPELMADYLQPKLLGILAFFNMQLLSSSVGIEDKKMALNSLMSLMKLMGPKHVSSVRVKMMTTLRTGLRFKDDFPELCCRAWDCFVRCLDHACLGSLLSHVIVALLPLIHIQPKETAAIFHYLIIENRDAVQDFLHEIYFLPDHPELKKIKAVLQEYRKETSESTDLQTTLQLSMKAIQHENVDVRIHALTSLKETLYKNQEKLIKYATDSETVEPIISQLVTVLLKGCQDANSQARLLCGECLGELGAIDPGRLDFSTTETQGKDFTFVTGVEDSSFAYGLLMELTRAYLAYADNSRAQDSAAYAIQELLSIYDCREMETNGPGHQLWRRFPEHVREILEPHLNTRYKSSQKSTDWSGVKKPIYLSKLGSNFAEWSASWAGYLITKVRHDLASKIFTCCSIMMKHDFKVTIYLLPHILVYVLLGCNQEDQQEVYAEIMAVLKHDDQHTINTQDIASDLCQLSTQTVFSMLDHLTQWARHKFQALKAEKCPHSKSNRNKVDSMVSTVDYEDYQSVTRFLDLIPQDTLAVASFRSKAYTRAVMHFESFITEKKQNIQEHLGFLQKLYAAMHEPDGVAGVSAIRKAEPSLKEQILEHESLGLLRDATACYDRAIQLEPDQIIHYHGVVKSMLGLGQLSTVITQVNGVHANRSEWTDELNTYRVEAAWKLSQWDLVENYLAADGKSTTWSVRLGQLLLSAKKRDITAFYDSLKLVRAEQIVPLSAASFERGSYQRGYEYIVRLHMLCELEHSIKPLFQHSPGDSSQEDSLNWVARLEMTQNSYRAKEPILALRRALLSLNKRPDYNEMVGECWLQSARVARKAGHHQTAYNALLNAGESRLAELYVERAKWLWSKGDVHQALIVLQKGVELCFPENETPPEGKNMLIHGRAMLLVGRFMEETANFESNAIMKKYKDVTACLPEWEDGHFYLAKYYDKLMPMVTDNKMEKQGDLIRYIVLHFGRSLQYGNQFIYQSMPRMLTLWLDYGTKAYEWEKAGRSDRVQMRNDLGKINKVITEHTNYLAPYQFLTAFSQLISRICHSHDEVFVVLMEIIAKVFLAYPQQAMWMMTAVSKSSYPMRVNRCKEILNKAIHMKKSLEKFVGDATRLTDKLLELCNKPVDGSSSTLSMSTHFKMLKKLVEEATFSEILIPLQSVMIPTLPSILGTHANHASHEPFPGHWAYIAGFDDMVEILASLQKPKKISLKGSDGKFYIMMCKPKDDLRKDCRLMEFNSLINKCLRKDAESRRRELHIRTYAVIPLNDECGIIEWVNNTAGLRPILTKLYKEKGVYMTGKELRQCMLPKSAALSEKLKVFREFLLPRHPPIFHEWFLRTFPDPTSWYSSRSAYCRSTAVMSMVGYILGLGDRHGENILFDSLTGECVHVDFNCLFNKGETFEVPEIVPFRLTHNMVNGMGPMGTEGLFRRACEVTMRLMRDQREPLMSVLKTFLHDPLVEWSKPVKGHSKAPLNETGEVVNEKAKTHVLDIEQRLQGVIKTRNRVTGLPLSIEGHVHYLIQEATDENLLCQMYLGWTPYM

| binding result [1] | binding result (ATR) | Binder |
| --- | --- | --- |
| no binding | – | XRCC4 (other, human, UniProt Q13426 1-336, looked up) MERKISRIHLVSEPSITHFLQVSWEKTLESGFVITLTDGHSAWTGTVSESEISQEADDMAMEKGKYVGELRKALLSGAGPADVYTFNFSKESCYFFFEKNLKDVSFRLGSFNLEKVENPAEVIRELICYCLDTIAENQAKNEHLQKENERLLRDWNDVQGRFEKCVSAKEALETDLYKRFILVLNEKKTKIRSLHNKLLNAAQEREKDIKQEGETAICSEMTADRDPVYDESTDEESENQTDLSGLASAAVSKDDSIISSLDVTDIAPSRKRRQRMQRNLGTEPKMAPQENQLQEKENSRPDSSLPETSKKEHISAENMSLETLRNSSPEDLFDEI |
| – | no binding | B1 |
